Where only a bound is given, the exact number is not on record here.

For the assay, the target named is Extracellular region of FcγRIIIa (residues 19-193, V158 allotype) (UniProt P08637). Description: SPR. In general terms: In SPR one partner is held on a chip, and binding of the other changes the refractive index at the surface.

In general, Kd refers to the concentration at which binding is half-saturated. A higher Kd goes with a looser complex. In the case of “Human IgG1 Fc T299A (aglycosylated variant) (domain or fragment)”, the Kd was above 50 µM.

The substance “Human IgG1 Fc D265A (glycosylated variant) (domain or fragment)” displayed a dissociation constant Kd above 50 µM.

For the origin of these results see PMC4558368.
